# Measurements: patent US20030092067A1
# B1: Der pI (protein)
# chain: TNACSINGNAPAEIDLRQMRTVTPIRMQGGCGSCWAFSGVAATESAYLAYRNQSLDLAEQELVDCASQHGCHGDTIPRGIEYIQHNGVVQESYYRYVAREQSCRRPNAQRFGISNYCQIYPPNVNKIREALAQTHSAIAVIIGIKDLDAFRHYDGRTIIQRDNGYQPNYHAVNIVGYSNAQGVDYWIVRNSWDTNWGDNGYGYFAANIDLMMIEEYPYVVIL
# Legend:
# [1] = molecular target: Abz-2.Naph-Val-Ala-Nle-Ser-Tyr(NO2)-Asp-NH2
# [2] = molecular target: Abz-ACH-Ala-hLeu-Ser-Tyr(NO2)-Asp-NH2
# [3] = molecular target: Abz-Bip-Ala-hLeu-Hyp-Tyr(NO2)-Asp-NH2
# [4] = molecular target: Abz-Bip-Ala-hLeu-Met(O)-Tyr(NO2)-Asp-NH2
# [5] = molecular target: Abz-Bip-Ala-hLeu-Thr-Tyr(NO2)-Asp-NH2
# [6] = molecular target: Abz-Bip-Ala-hLeu-Tyr-Tyr(NO2)-Asp-NH2
# [7] = molecular target: Abz-DVal-Ala-hLeu-Ser-Tyr(NO2)-Asp-NH2
# [8] = molecular target: Abz-Deg-Ala-Nle-Ser-Tyr(NO2)-Asp-NH2
# [9] = molecular target: Abz-Lys-Ala-hLeu-Ser-Tyr(NO2)-Asp-NH2
# [10] = molecular target: Abz-Lys-Val-Ala-Nle-Ser-Tyr(NO2)-Asp-NH2
# [11] = molecular target: Abz-Tic-Ala-hLeu-Ser-Tyr(NO2)-Asp-NH2
# [12] = molecular target: Abz-Val-(NMe)Ala-Nle-Ser-Tyr(NO2)-ASP-NH2
# [13] = molecular target: Abz-Val-ACH-hLeu-Ser-Tyr(NO2)-Asp-NH2
# [14] = molecular target: Abz-Val-Ala-(NMe)Nle-Ser-Tyr(NO2)-Asp-NH2
# [15] = molecular target: Abz-Val-Ala-ACH-Ser-Tyr(NO2)-Asp-NH2
# [16] = molecular target: Abz-Val-Ala-ACP-Ser-Tyr(NO2)-Asp-NH2
# [17] = molecular target: Abz-Val-Ala-Aib-Ser-Tyr(NO2)-Asp-NH2
# [18] = molecular target: Abz-Val-Ala-DNle-Ser-Tyr(NO2)-Asp-NH2
# [19] = molecular target: Abz-Val-Ala-Gln-Ser-Tyr(NO2)-Asp-NH2
# [20] = molecular target: Abz-Val-Ala-Lys-Ser-Tyr(NO2)-Asp-NH2
# [21] = molecular target: Abz-Val-Ala-Nle-Ser-Phe-Asp-NH2
# [22] = molecular target: Abz-Val-Ala-Nle-Ser-Tyr(NO2)-Asp-NH2
# [23] = molecular target: Abz-Val-Ala-Nle-Ser-Tyr(NO2)-NH2
# [24] = molecular target: Abz-Val-Ala-Nle-Ser-eAHA-Asp-NH2
# [25] = molecular target: Abz-Val-Cha-hLeu-Ser-Tyr(NO2)-Asp-NH2
# [26] = molecular target: Abz-Val-Met(O)-hLeu-Ser-Tyr(NO2)-Asp-NH2
# [27] = molecular target: Abz-p.Aba-Nle-Ser-Tyr(NO2)-Asp-NH2
# [28] = molecular target: Ac-Val-Ala-Nie-Ser-Tyr(NO2)-Asp-NH2
# [29] = molecular target: Bz(2-carboxy)-Val-Ala-Nle-Ser-Tyr(NO2)-NH2
# [30] = molecular target: Bz-Val-Ala-Nle-Ser-Tyr(NO2)-NH2
# [31] = molecular target: Bz-Val-Ala-Nle-Ser-Tyr(NO2)-NH2 (second printing, row r51)
# [32] = molecular target: Chex-Val-Ala-Nle-Ser-Tyr(NO2)-NH2
# [33] = molecular target: H-Val-Ala-Nle-Ser-Tyr(NO2)-NH2
# [34] = molecular target: H-Val-Ala-Nle-Ser-TyrNO2-ASp-NH2
# [35] = molecular target: Piv-Val-Ala-Nle-Ser-Tyr(NO2)-NH2
# [36] = molecular target: nBu-D.Ser-D.Nle-D.Ala-D.Val-p.Aba-NH2
protein,measurement,setting,value
B1,Measured Km (µM),[1],NM
same,Measured Km (µM),[2],NS
same,Measured Km,[3],4 µM
same,Measured Km,[4],5 µM
same,Measured Km,[5],2.5 µM
same,Measured Km,[6],3 µM
same,Measured Km (µM),[7],NS
same,Measured Km (µM),[8],NS
same,Measured Km,[9],> 15 µM
same,Measured Km,[10],15 µM
same,Measured Km (µM),[11],NS
same,Measured Km (µM),[12],NS
same,Measured Km (µM),[13],NS
same,Measured Km (µM),[14],NS
same,Measured Km (µM),[15],NS
same,Measured Km (µM),[16],NS
same,Measured Km (µM),[17],NS
same,Measured Km (µM),[18],NS
same,Measured Km,[19],6 µM
same,Measured Km,[20],14 µM
same,Measured Km (µM),[21],NM
same,Measured Km,[22],12 µM
same,kcat/Km,[22],35000 M⁻¹ s⁻¹
same,Measured Km (µM),[23],NM
same,cleavage rate (rank order),[23],Bz>n-But>Piv>Bz(2-carboxy)>Abz
same,Measured Km (µM),[24],NM
same,Measured Km (µM),[25],NS
same,Measured Km,[26],35 µM
same,Measured Km (µM),[27],NS
same,Measured Km (µM),[28],NS
same,Measured Km (µM),[29],NM^a
same,cleavage rate (rank order),[29],Bz>n-But>Piv>Bz(2-carboxy)>Abz
same,Measured Km (µM),[30],NM^a
same,cleavage rate (rank order),[30],Bz>n-But>Piv>Bz(2-carboxy)>Abz
same,Measured Km (µM),[31],NM^a
same,Measured Km (µM),[32],NM^a
same,Measured Km (µM),[33],NS
same,Measured Km (µM),[34],NS
same,Measured Km (µM),[35],NM^a
same,cleavage rate (rank order),[35],Bz>n-But>Piv>Bz(2-carboxy)>Abz
same,Measured Km (µM),[36],NS
